Columns and labels:
[1] = target: T1, human MSLN-FL-his protein (human, UniProt Q13421 296-580); experiment: competitive ELISA; row F1.56.1; further: test concentration or dose not given here
T1 construct: made in HEK293E cells, purified on nickel column; also called hMSLN-FL-his; human MSLN full-length protein; not shown: His tag

[2] = target: T1, human MSLN-FL-his protein; experiment: competitive ELISA; row F2.17.3
Description: In order to identify antigen-binding sites of antibodies, MSLN chimeric antibodies were grouped using competitive ELISA.
The chimeric antibodies were diluted to 2 μg/mL with PBS and allowed to coat 96-well high-adsorption ELISA plates at 50 μL/well. After the plates were coated at 4° C. overnight, 250 μL of a blocking buffer (PBS containing 2% (w/w) BSA) was added for two hours of blocking at room temperature. 40 μg/mL of the antibodies to be tested were added, and then the human MSLN-FL-His protein with an EC₈₀ concentration corresponding to each of the antibodies to be tested was added for incubation for 2 h. The plates were washed 5 times with PBS, an HRP-labeled anti-His secondary antibody (purchased from Genescript, Cat. No. A00612) was then added for incubation for 1 h, and the plates were washed 5 times again. A TMB substrate was added at 50 μL/well, and after 10 minutes of incubation at room temperature, a stop solution (1.0 M HCl) was added at 50 μL/well. OD₄₅₀ nm values were read using an ELISA plate reader (Insight, purchased from PerkinElmer), and the competition rate between the antibodies was calculated according to the OD₄₅₀ nm values using a formula.

[3] = target: T1, human MSLN-FL-his protein; experiment: competitive ELISA; row Tab108 (R3); further: test concentration or dose not given here
[4] = target: T1, human MSLN-FL-his protein; experiment: competitive ELISA; row F1.2.12; further: test concentration or dose not given here
[5] = target: T1, human MSLN-FL-his protein; experiment: competitive ELISA; row F1.35.24; further: test concentration or dose not given here
[6] = target: T1, human MSLN-FL-his protein; experiment: competitive ELISA; row F2.39.3; further: test concentration or dose not given here
[7] = target: T1, human MSLN-FL-his protein; experiment: competitive ELISA; row F2.24.10; further: test concentration or dose not given here
[8] = target: T1, human MSLN-FL-his protein; experiment: competitive ELISA; row Tab142 (R1); further: test concentration or dose not given here
[9] = target: T1, human MSLN-FL-his protein; experiment: SPR (Biacore), antibody captured on Protein A chip;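 further: measured at 25 °C, analyte injected 240 s in five twofold dilutions from 200 nM, dissociation up to 600 s, double-referenced, fitted with Langmuir 1:1 model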
Description: The flow cell was set at 25° C. The sample block was set at 16° C. Both were pretreated with the running buffer. In each cycle, first, the antibody to be tested was captured using the Protein A chip, and then a single concentration of human MSLN-FL-his protein was injected. […] The association was determined by injecting different concentrations of human MSLN-FL-his in solution for 240 s on end, wherein the flow rate was 30 μL/min, and the protein was diluted in a 1:1 dilution ratio from 200 nM (see detailed results for actual concentrations tested) to obtain 5 concentrations in total. The dissociation phase was monitored for up to 600 s and triggered by switching from the sample solution to the running buffer. The surface was regenerated by washing with 10 mM glycine solution (pH 1.5) at a flow rate of 30 μL/min for 30 s. The difference in bulk refractive index was corrected by subtracting the responses obtained from the goat anti-human Fc surface. Blank injections were also subtracted (=double reference). To calculate the apparent KD and other kinetic parameters, the Langmuir 1:1 model was used.

[10] = target: T1, human MSLN-FL-his protein; experiment: competitive ELISA; row F2.16.10; further: test concentration or dose not given here
[11] = target: T1, human MSLN-FL-his protein; experiment: competitive ELISA; row Tab107 (conformation); further: test concentration or dose not given here
[12] = target: T1, human MSLN-FL-his protein; experiment: competitive ELISA; row F2.13.3; further: test concentration or dose not given here
[13] = target: T1, human MSLN-FL-his protein; experiment: competitive ELISA; row F2.58.8; further: test concentration or dose not given here

T1 sequence (Q13421 other isoform, or with tags, fused parts or gaps): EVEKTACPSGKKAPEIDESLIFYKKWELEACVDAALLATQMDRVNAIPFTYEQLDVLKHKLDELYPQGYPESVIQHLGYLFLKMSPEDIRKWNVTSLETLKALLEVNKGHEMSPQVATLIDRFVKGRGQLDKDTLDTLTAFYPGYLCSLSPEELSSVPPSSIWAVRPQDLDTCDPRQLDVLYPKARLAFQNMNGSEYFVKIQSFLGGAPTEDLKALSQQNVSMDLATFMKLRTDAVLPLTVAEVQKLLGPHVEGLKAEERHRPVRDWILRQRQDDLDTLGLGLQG

Row | Binder | competition rate [1] | competition rate [2] | competition rate [3] | competition rate [4] | competition rate [5] | competition rate [6] | competition rate [7] | competition rate [8] | Kd [9] | koff [9] | kon [9] | competition rate [10] | competition rate [11] | competition rate [12] | competition rate [13]
1 | S009-F2.13.3 (antibody, human IgG1, kappa, V domains shown, human-murine chimeric antibody, human IgG1/kappa constant regions) VH: QVQLQQSGAELMKPGASVKLSCKATGYTFTGYWIEWVKQRPGHGLEWIGEILPGSGSTNYNEKFKGKATFTADTSSNTAYMQLSSLTTEDSAIYYCARAGAWFAYWGQGTLVTVSA VL: QIVLTQSPAIMSASLGERVTMTCTASSSVSSSYLHWYQQKPGSSPKLWTYSTSNLASGVPARFSGSGSGTSYSLTISSMEAEDAATYYCHQYHRSPWTFGGGTKLEIKR | -426% | -11% | -105% | 23% | 7% | 13% | -65% | -33% | 8.65 nM | 0.00189 s⁻¹ | 219000 M⁻¹ s⁻¹ | -41% | -54% | 84% | -86%
2 | S009-F1.35.24 (antibody, human IgG1, kappa, V domains shown, human-murine chimeric antibody, human IgG1/kappa constant regions) VH: EVQLQQSEPELVKPGASVRISCKASGYSFTDYYMHWVKQSPENRLEWIGEINPSTGGTSYNPKFKDKATLTVDKSSSTAYMQLKSLTSEESAVYYCTRYHYYGSSSYVMDYWGQGTSVTVSS VL: QIVLTQSPAILSASPGERVTMTCSASSSVYHMHWFQQKSGTSPKRWVYDTSKLASGVPARFSGSGSGTSYSLTISSMEAEDAATYYCQHWRTNPLTFGAGTKLELKR | 97% | 59% | 62% | -15% | 100% | 67% | 13% | 49% | 0.914 nM | 8.51e-05 s⁻¹ | 93100 M⁻¹ s⁻¹ | 31% | 36% | 29% | 100%
3 | S009-F1.56.1 (antibody, human IgG1, kappa, V domains shown, human-murine chimeric antibody, human IgG1/kappa constant regions) VH: EVQLQQSGAEVVKPGASVKLSCTASGFNIRHTYMHWVKQRPEQGLEWIGRIDPANGNTEYDPKFQGKATITADTSSNTAYLQLSSLTSEDTAVYYCARDGWYIDVWGAGTTVTVSS VL: DIVMSQSPSSLAVSVGEKVTMSCKSSQSLLYSNNQKNYLAWYQQKPGQSPKLLIYWASTRESGVPDRFTGSGSGTDFTLTISSVKAEDLAVYYCQRYYSYPWTFGGGTKLEIKR | 104% | -6% | -36% | 75% | 79% | 69% | -39% | 9% | 0.889 nM | 0.00071 s⁻¹ | 799000 M⁻¹ s⁻¹ | -7% | -35% | -588% | 107%
4 | S009-F2.58.8 (antibody, human IgG1, kappa, V domains shown, human-murine chimeric antibody, human IgG1/kappa constant regions) VH: QVQLLQSGAELAKPGASVKLSCKASGYTFTSYWVHWVKQRPGQGLEWIGYINPNSGYTKYNQKFKDKATLTADKSSSTAYMQLSSLTYEDSAVYYCADHYYGSSRDYFDYWGQGTTLTVSS VL: QIVLTQSPAIMSASPGEKVTMTCSASSSVSYMYWYQQRPGSSPRLLIYDTSNLASGVPVRFSGSGSGTSYSLTISRMEAEDAATYYCQQWNSYPYTFGGGTKLEIKR | 104% | 84% | 60% | -133% | 96% | 91% | 6% | 46% | 0.524 nM | 0.000123 s⁻¹ | 236000 M⁻¹ s⁻¹ | 41% | -6% | -396% | 111%
5 | S009-F2.39.3 (antibody, human IgG1, kappa, V domains shown, human-murine chimeric antibody, human IgG1/kappa constant regions) VH: QVQLQQPGTELVKPGASVKLSCKASGYTFTNYWMHWVKQRPGQGLEWIGNINPSSGDSYYNERFMSKAKMTVDKSSSTAYMQLSSLTSEDSAVYYCARSGGLWLAFWGPGTLVTVSA VL: DIVMTQSPSSLAMSVGQKVTMSCKSSQTLLNSVSQNNYLAWYQQKPGQSPTLLVYFASTRESGVPDRFIGGGSGTDFTLTISSVQAEDLADYFCQQHYRTPYTFGGGTNLEIKR | -87% | 107% | 101% | -208% | 47% | 105% | -13% | 19% | 3.06 nM | 0.000122 s⁻¹ | 40000 M⁻¹ s⁻¹ | 4% | 0% | -525% | 97%
6 | S009-F2.17.3 (antibody, human IgG1, kappa, V domains shown, human-murine chimeric antibody, human IgG1/kappa constant regions) VH: QVQLQQPGTELVTPGASVKLSCKASGYSFTSYWMHWVKQRPGQGLEWIGNINPSNGDTFYNEKFKNKATLTVDKSSSTAYMQLSSLTSEDSAVYYCARGWLRDYWGQGTTLTVSS VL: not shown | -56% | 102% | 100% | -182% | 43% | 106% | -13% | 15% | 2.72 nM | 0.000174 s⁻¹ | 64100 M⁻¹ s⁻¹ | -8% | -1% | -814% | 78%
7 | S009-F2.23.12 (antibody, human IgG1, kappa, V domains shown, human-murine chimeric antibody, human IgG1/kappa constant regions) VH: QVQLQQPGTELVKPGASVKLSCKASGYTFTNYWMHWVKQRPGQGLEWIGNINPSNGGPYYNERFRSKATLTVDKSSSTAYMQLSSLTSEDSAVYYCARPYYGSSYGYFDYWGQGTTLTVSS VL: DIQMTQSPSSLSASLGGKVTITCKASQDINKYIAWYQHKPGKGPRLLIHYTSELQPGIPSRFSGNGSGRDYSFSISNLEPEDIATYYCLQYANPLRTFGGGTKLEIKR | 24% | 90% | 85% | -70% | 61% | 97% | 2% | 23% | 8.71 nM | 0.000714 s⁻¹ | 81900 M⁻¹ s⁻¹ | -42% | 3% | -1080% | 69%
8 | S009-F2.16.10 (antibody, human IgG1, kappa, V domains shown, human-murine chimeric antibody, human IgG1/kappa constant regions) VH: QVQLQQPGAELIKPGASVKLSCKASGYTFTSYWMHWVKQRPGQGLEWIGIIHPNIGSTNYNERFKSKATLTVDKSSSTAYMQLSSLTSEDSAVYYCARRSSNYGDWYFDVWGTGTTVTVSS VL: DIVMTQSHRFMSTSVGDRVSITCKASQDVGTSVAWYQQKPGQSPKLLIYWASTQHTGVPDRFTGSGSGTDFTLTINNVQSEDLLDYFCQQYSSYPLTFGAGTKLELKR | -401% | -34% | -156% | -401% | -18% | 31% | 88% | 98% | 1.51 nM | 0.00164 s⁻¹ | 1.09e+06 M⁻¹ s⁻¹ | 103% | -51% | -740% | 18%
9 | S009-F2.47.1 (antibody, human IgG1, kappa, V domains shown, human-murine chimeric antibody, human IgG1/kappa constant regions) VH: QVQLQQPGAELVKPGASVKLSCKASGYTFTSYWMHWVKQRPGQGLEWIGMIHPNSGSTNYNEKFKSKATLTVDKSSSTAYMQLSSLTSEDSAVYYCARPVVPYWYFDVWGTGTTVTVSS VL: DIVMTQSQKFMSTTVGDRVSITCKASQNVGTAVAWYQQKPGQSPKLLIYSASNRYTGVPDRFTGSGSGTDFTLTISNMQSEDLADYFCQQSSSYPLTFGAGTKLELKR | -324% | -88% | -158% | -484% | -12% | 23% | 56% | 82% | 5.13 nM | 0.0103 s⁻¹ | 2.01e+06 M⁻¹ s⁻¹ | 88% | -42% | -975% | 31%
10 | S009-F1.2.12 (antibody, human IgG1, kappa, V domains shown, human-murine chimeric antibody, human IgG1/kappa constant regions) VH: QVQLKQTGPGLVQPSQSLSITCTVSGFSLTNYAVHWVRQSPGKGLEWLGVIWSGGATDYNTVFISRLSISKDNSKSQVFFKVNSLQVDDTAIYYCARTGSGYAMDYWGQGTSVTVSS VL: DIVLTQSPATLSVTPGDRVSLSCRTSHNVNTYLHWYQQKSHESPRLLIKYASQSISEIPSRFSGSGSGTNFTLSINSVETEDFGMYFCHQTNRWPLTFGAGTKLELKR | 74% | -31% | -29% | 63% | 4% | 2% | -17% | -5% | 15.8 nM | 0.00143 s⁻¹ | 90600 M⁻¹ s⁻¹ | -81% | 29% | 54% | 32%

— US20250250357A1 (NANJING ZAIMING PHARMACEUTICAL, published 2025)
